In assay [1] the target is T1, CD33-Fc (UniProt P20138 18-259).
T1 construct: Negative control construct; not shown: Fc part, detected with goat anti-human Fc antibodies
The assay is described as follows: dot blot overlay of whole bacteria with soluble receptor.

The target of assay [2] is T2, CEACAM1-Fc soluble receptor construct (human, UniProt P13688 35-320).
T2 construct: also called CC1-Fc; human CEACAM1-Fc; not shown: Fc part, detected with goat anti-human Fc antibodies
T2 sequence: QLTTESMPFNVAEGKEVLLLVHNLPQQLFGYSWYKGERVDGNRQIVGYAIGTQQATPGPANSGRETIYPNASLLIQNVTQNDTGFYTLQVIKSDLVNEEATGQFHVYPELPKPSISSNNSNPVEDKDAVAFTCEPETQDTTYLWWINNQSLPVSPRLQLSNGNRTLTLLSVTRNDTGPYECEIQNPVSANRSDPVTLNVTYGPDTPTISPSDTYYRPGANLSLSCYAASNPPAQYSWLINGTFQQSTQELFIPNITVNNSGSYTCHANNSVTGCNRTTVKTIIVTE
Briefly: assay not named.

For assay [3], the target named is T2, CEACAM1-Fc soluble receptor construct. Briefly: Western blot overlay with CEACAM1-Fc. A general note: A western blot detects proteins with antibodies after separation by electrophoresis.
Assay [4] deals with T1, CD33-Fc. The assay is described as follows: blot overlay.

T1 sequence (P20138 18-259 limits assumed): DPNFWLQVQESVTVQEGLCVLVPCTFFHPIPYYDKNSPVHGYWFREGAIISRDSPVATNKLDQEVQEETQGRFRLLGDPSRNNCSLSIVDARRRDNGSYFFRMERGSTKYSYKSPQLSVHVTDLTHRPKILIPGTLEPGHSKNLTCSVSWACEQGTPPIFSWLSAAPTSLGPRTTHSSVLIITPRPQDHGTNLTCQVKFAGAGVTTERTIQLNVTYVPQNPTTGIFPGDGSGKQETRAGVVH

B1: UspA1 protein of Moraxella catarrhalis strain MX2 (ATCC 25238) (ligand)
chain: QKVGKATNKISGGDNNTANGTYLTIGGGDYNKTKGRYSTIGGGLFNEATNEYSTIGSGGYNKAKGRYSTIGGGGYNEATNQYSTIGGGDNNTAKGRYSTIGGGGYNEATIENSTVGGGGYNQAKGRNSTVAGGYNNEATGTDSTIAGGRKNQATGKGSFAAGIDNKANADNAVALGNKNTIEGENSVAIGSNNTVKKGQQNVFILGSNTDTTNAQNGSVLLGHNTAGKAATIVNSAEVGGLSLTGFAGASKTGNGTVSVGKKGKERQIVHVGAGEISDTSTDAVNGSQLHALATVVAQNKADIKDLDDEVGLLGEEINSLEGEIFNNQDAIAKNQADIKTLESNVEEGLLDLSGRLIDQKADIDNNINNIYELAQQQDQHSSDIKTLKNNVEEGLLDLSGRLIDQKADLTKDIKALESNVEEGLLDLSGRLIDQKADIAKNQADIAQNQTDIQDLAAYNELQDAYAKQQTEAIDALNKASSANTDRIATAELGIAENKKDAQIAKAQANENKDGIAKNQADIQLHDKKITNLGILHSMVARAVGNNTQGVATNKADIAKNQADIANNIKNIYELAQQQDQHSSDIKTLAKVSAANTDRIAKNKAEADASFETLTKNQNTLIEQGEALVEQNKAINQELEGFAAHADVQDKQILQNQADITTNKTAIEQNINRTVANGFEIEKNKAGIATNKQELILQNDRLNRINETNNHQDQKIDQLGYALKEQGQHFNNRISAVERQTAGGIANAIAIATLPSPSRAGEHHVLFGSGYHNGQAAVSLGAAGLSDTGKSTYKIGLSWSDAGGLSGGVGGSYRWK
notes: Tested on whole bacteria or in whole cell lysates; migrates at >200 kDa unheated and at circa 92 kDa after boiling; also called MX2 UspA1
Take B1: in the assay with CD33-Fc [1], the binding result is “no binding (tested: 1-2 µg ml^-1)”.

B2: N-terminal recombinant MX2 peptide consisting of amino acids 1 to 449 (peptide)
chain: MNKIYKVKKNAAGHLVACSEFAKGHTKKAVLGSLLIVGILGMATTASAQKVGKATNKISGGDNNTANGTYLTIGGGDYNKTKGRYSTIGGGLFNEATNEYSTIGSGGYNKAKGRYSTIGGGGYNEATNQYSTIGGGDNNTAKGRYSTIGGGGYNEATIENSTVGGGGYNQAKGRNSTVAGGYNNEATGTDSTIAGGRKNQATGKGSFAAGIDNKANADNAVALGNKNTIEGENSVAIGSNNTVKKGQQNVFILGSNTDTTNAQNGSVLLGHNTAGKAATIVNSAEVGGLSLTGFAGASKTGNGTVSVGKKGKERQIVHVGAGEISDTSTDAVNGSQLHALATVVAQNKADIKDLDDEVGLLGEEINSLEGEIFNNQDAIAKNQADIKTLESNVEEGLLDLSGRLIDQKADIDNNINNIYELAQQQDQHSSDIKTLKNNVEEGLLDLSGR
For B2, the binding result in assay [2] is reported as “no binding”.

B3: peptide D-8 with deletion of the region 571-632 (D-8Δ) (peptide)
chain: ASSANTDRIATAELGIAENKKDAQIAKAQANENKDGIAKNQADIIKTLAKVSAANTDRIAKNKAEADASFETLTKNQNTLIEQGEALVEQNKAINQELEGFAAHADVQDKQILQNQADITTNKTAIEQNINRTVANGFEIEKNKAGIATNKQELILQNDRLNRINETNNHQDQKIDQLGYALKEQGQHFNNRISAVERQTAGGIANAIAIATLPSPSRAGEHHVLFGSGYHNGQAAVSLGAAGLSDTGKSTYKIGLSWSDAGGLSGGVGGSYRWK
notes: Outer limits as deduced for D-8 (527-863); the deletion 571-632 is printed; also called control peptide; not shown: His tag from the pQE30 vector
Take B3: the binding result in assay [2] is reported as “no binding”.

B4: recombinant UspA1 fragment 6-8 (residues E659-K863 of UspA1 of MX2) (peptide)
chain: ETLTKNQNTLIEQGEALVEQNKAINQELEGFAAHADVQDKQILQNQADITTNKTAIEQNINRTVANGFEIEKNKAGIATNKQELILQNDRLNRINETNNHQDQKIDQLGYALKEQGQHFNNRISAVERQTAGGIANAIAIATLPSPSRAGEHHVLFGSGYHNGQAAVSLGAAGLSDTGKSTYKIGLSWSDAGGLSGGVGGSYRWK
notes: also called P6-P8; not shown: His tag from the pQE30 vector
With B4, the binding result in assay [3] is recorded as “no binding”.

B5: recombinant UspA1 fragment D-8 (peptide)
chain: ASSANTDRIATAELGIAENKKDAQIAKAQANENKDGIAKNQADIQLHDKKITNLGILHSMVARAVGNNTQGVATNKADIAKNQADIANNIKNIYELAQQQDQHSSDIKTLAKVSAANTDRIAKNKAEADASFETLTKNQNTLIEQGEALVEQNKAINQELEGFAAHADVQDKQILQNQADITTNKTAIEQNINRTVANGFEIEKNKAGIATNKQELILQNDRLNRINETNNHQDQKIDQLGYALKEQGQHFNNRISAVERQTAGGIANAIAIATLPSPSRAGEHHVLFGSGYHNGQAAVSLGAAGLSDTGKSTYKIGLSWSDAGGLSGGVGGSYRWK
notes: Limits deduced: D = 527 (see D-7), 8 = 863 (from 6-8, E659-K863); also called D-8 polypeptide; not shown: His tag from the pQE30 vector
Regarding B5, the binding result in the assay with CD33-Fc [4] was “no binding”.

(Values after patent US20100168002A1 (UNIVERSITY OF BRISTOL, published 2010).)
